Test results as given in publication PMC3206940 (PLoS ONE, 2011).

B1: SARS-CoV 3C-like protease (3CL^pro) (enzyme)
chain: SGFRKMAFPSGKVEGCMVQVTCGTTTLNGLWLDDTVYCPRHVICTAEDMLNPNYEDLLIRKSNHSFLVQAGNVQLRVIGHSMQNCLLRLKVDTSNPKTPKYKFVRIQPGQTFSVLACYNGSPSGVYQCAMRPNHTIKGSFLNGSCGSVGFNIDYDCVSFCYMHHMELPTGVHAGTDLEGKFYGPFVDRQTAQAAGTDTTITLNVLAWLYAAVINGDRWFLNRFTTTLNDFNLVAMKYNYEPLTQDHVDILGPLSAQTGIAVLDMCAALKELLQNGMNGRTILGSTILEDEFTPFDVVRQCSGVTFQ
notes: also called 3CL^pro from SARS-CoV; main protease
B2: HCoV-OC43 3C-like protease (3CL^pro) (enzyme)
chain: SGIVKMVNPTSKVEPCVVSVTYGNMTLNGLWLDDKVYCPRHVICSASDMTNPDYTNLLCRVTSSDFTVLFDRLSLTVMSYQMRGCMLVLTVTLQNSRTPKYTFGVVKPGETFTVLAAYNGKPQGAFHVTMRSSYTIKGSFLCGSCGSVGYVIMGDCVKFVYMHQLELSTGCHTGTDFNGDFYGPYKDAQVVQLPIQDYIQSVNFLAWLYAAILNNCNWFIQSDKCSVEDFNVWALSNGFSQVKSDLVIDALASMTGVSLETLLAAIKRLKNGFQGRQIMGSCSFEDELTPSDVYQQLAGIKLQ
notes: also called 3CL^pro from HCoV-OC43; main protease; not shown: His6-SUMO or His6-MBP, N-terminal, cleaved

Target: the molecule itself
Assay: SEC

Protein | stoichiometry N
B1 | 2
B2 | 2
